The results in this text go back to US6881545 (Takeda / Millennium, dated 2005).

The target in this assay is T1, human pituitary-derived G protein-coupled receptor protein encoded by phGR3 (hGR3), expressed on CHO-19P2 / … (human, UniProt P49683 1-370).
T1 construct: CHO-19P2-9 is a monoclone of CHO-19P2 selected for a stronger response to 19P2-L31; also called full-length receptor protein; 19P2 receptor
T1 sequence: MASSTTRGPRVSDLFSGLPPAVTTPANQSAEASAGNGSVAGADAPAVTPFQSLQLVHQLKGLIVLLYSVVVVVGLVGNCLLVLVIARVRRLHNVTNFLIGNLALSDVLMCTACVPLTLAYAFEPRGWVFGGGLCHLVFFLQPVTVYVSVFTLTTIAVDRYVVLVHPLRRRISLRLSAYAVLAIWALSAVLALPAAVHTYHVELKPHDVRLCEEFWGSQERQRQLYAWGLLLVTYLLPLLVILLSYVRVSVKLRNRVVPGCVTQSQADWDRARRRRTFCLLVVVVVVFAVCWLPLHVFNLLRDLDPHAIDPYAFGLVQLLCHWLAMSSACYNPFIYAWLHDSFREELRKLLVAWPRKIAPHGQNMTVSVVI
As to the kind of experiment: radioligand binding on live CHO-19P2-9 cells, 200 pM tracer, non-specific binding with 200 nM unlabeled 19P2-L31, filtration. The text has this:
As receptor-expressing CHO cells, CHO-19P2-9; mono-clone of CHO-19P2, CHO-UHR-1, and mock CHO were used in this experiment. CHO-19P2-9 cells are ones selected from CHO-19P2 cells by ultradilution technique using 96-well microplate as clone which indicated stronger arachidonic acid metabolic-release promoting reaction by 19P2-L31. The mock CHO cells are ones for control which were transformed with expression vector pAKKO alone. These cells cultured in flasks for culturing tissues were harvested with 5 mM EDTA/PBS, and then resuspended in HBSS containing 0.05% BSA and 0.05% CHAPS at 0.5 ×10^7 cells/ml. […] The reaction mixture were diluted with 2 ml of an ice-cold beffer (50 mM Tris-HCl pH7.5 containing 5 mM EDTA, 0.05% BSA, and 0.05% CHAPS) and immediately filtered though glass filters GF/F (Whattman) which were pre-wetted with the buffer containing 0.3% polyethylenimine. The glass filters were subjected to γ-counting. Non-specific binding was determined in the presence of 200 nM unlabeled 19P2-L31.

No end group written: not given here.

B1: [^125I]-19P2-L31 (19P2-L31 radioiodinated with [^125I]-Bolton-Hunter Reagent) (peptide)
peptide: SRAHQHSMEIRTPDINPAWYAGRGIRPVGRF-NH2
modifications: also: radioiodinated with [125I]-Bolton-Hunter reagent, site not given here
notes: also called radioiodinated 19P2-L31; radioiodinated ligand polypeptide
Turning to B1, the binding result is listed as “binds”.
